In the DeepSol protein solubility set:

Test: soluble on expression in E. coli; label from the status in PepcDB or PDB records
For “MSLDAPYFSPRRLGHVNLIVRDTDASMRFYQDVVGFEEVYRVPAIGGGFLSNGNTHHDVGMVQSSGPSGKGRPPGLNHLAFELETEVALVEGYERSRQDGLAFERTLDHDIAHSAYCADPDGNSCELYADVVREWRTARTGEVTKPKPAWWPGKTPPNPHRNYHAEPQLRQVAHAAFHPLRTQHATLVVADLRESIAFYTRRIGLALQAQGDGYALLGGRCGRRDVALVQARGQLSPGYHHVGLEVADAGELLQAAQRWREQGGQVERLIEHPLRTAVYITDPDGLLLQFFVDHAADHAAWRHLDREQALWIVEGHHHHHH”, the “soluble on expression in E. coli” value was “not soluble”.
For “MRLVLSSLIVIAGLLSSQATAATAPEQTASADIRDSGFVYCVSGQVNTFNPQKASSGLIVDTLAAQLYDRLLDVDPYTYRLVPELAESWEVLDNGATYRFHLRRDVSFQKTAWFTPTRKLNADDVVFTFQRIFDRRHPWHNINGSSFPYFDSLQFADNVKSVRKLDNNTVEFRLTQPDASFLWHLATHYASVMSAEYAAQLSRKDRQELLDRQPVGTGPFQLSEYRAGQFIRLQRHDGFWRGKPLMPQVVVDLGSGGTGRLSKLLTGECDVLAWPAASQLTILRDDPRLRLTLRPGMNIAYLAFNTDKPPLNNPAVRHALALSINNQRLMQSIYYGTAETAASILPRASWAYDNDAKITEYNPQKSREQLKALGIENLTLHLWVPTSSQAWNPSPLKTAELIQADMAQVGVKVVIVPVEGRFQEARLMDMNHDLTLSGWATDSNDPDSFFRPLLSCAAINSQTNFAHWCNPEFDSVLRKALSSQQLASRIEAYEEAQNILEKELPILPLASSLRLQAYRYDIKGLVLSPFGNASFAGVSREKHEEVKKP”, the “soluble on expression in E. coli” value was “not soluble”.
In the case of “RAKGRFFYDKTSSQQPAIIVLSGSDGRIEKAQNIAQLLASHGFTTLALAYFGLEGLASHLEKIPLEIIQEAIDYLKKSPYADSIRLGLYGRSKGAEFALLAASHYADFKCLVLNSPSYLCLEGLKQWRNSKTSSWTYQGQELPYHPFLWKDFFQRLILKKDLKNINHQAVIPVEKINGSLLLLVSKKDEVWDAYGSAITIVNRLQQKRFKYPYQVESYENCGHMMTVAYQPNHRYKKVALEKIMADTNDSWQKTL”, the “soluble on expression in E. coli” value is reported as “not soluble”.
With “MKKVLLTLSLSIVASMGSFAQNEPYKNPKLTPEERAEDLLGRLTLKEKIGLMKNSSFAVERLGVAPYNWWSEALHGVARNGLATVFPITMGMASTFDDEAIERVYVAVSDEGRAKFHDAHRSNRYGYGNEGLTFWNPNVNIFRDPRWGRGQETFGEDPYLTTRMGVAVVKGMQGPADAEYDKAHACVKHYAVHSGPEAKRHSFDVEDLSPRDLWETYLPAFKALVQEADVKEVMCAYQRLEGEPCCDSNRLLTQILRDEWGYKHLVVSDCGAIDDFFVKGRHETHKDAADASASAVINGTDLECGSIYSHLEEAVKQGLITEERIDTSLRRLLKARFALGEMDP” the “soluble on expression in E. coli” value was “not soluble”.
With “SAMKPTAGPTTNADLTSAPPHDIFISHAWEDKADFVEALAHTLRAAGAEVWYDDFSLRPGDSLRRSIDKGLGSSRFGIVVLSTHFFKKEWPQKELDGLFQLESSGRSRILPIWHKVSKDEVASFSPTMADKLAFNTSTKSVDEIVADLMAIIRD” the “soluble on expression in E. coli” value was “soluble”.
With “MGHHHHHHSHMKPHFRNTVERMYRDTFSYNFYNRPILSRRNTVWLCYEVKTKGPSRPRLDAKIFRGQVPRSFIRAPFQVLSSPFGQCAPPHGTAQVQWPPQLTAGREQGRP” the “soluble on expression in E. coli” value was “not soluble”.
With “MSLKSHRYMEVSFTKYRINLKYSFGISRSSNNYYDVAFVFIKDKGIIGRGEAAPSKRYGESIDYIIKLLESGISLPKNSYDKESVWKHVKPQLGGIKSLEAAFNMAIWDWWGQKQKKPVYELLNIKVNNLPKTSFTIAIGNMNEIERKIEEAKPYSILKVKLGTPKNDKKIITEIRKLTDKLIRVDANEGWDLDMAIKMSKWLADRNVEFIEQPFPASKIDQTSILKKKSPLDIFADENSINSNDIPSLEGVFDGINIKLMKCGSIEEGYKMIKLAREFDLKIMLGCMVESSIEGHHHHHH” the “soluble on expression in E. coli” value was “soluble”.
For “SKEGSVAPKERINIKYIPATGDAQAEVELPLKTLVVGDFKGHAEQTPLEERATVTVDKNNFEAVMRESELKITATVKNKLTDDENAELPVELNFKSLADFAPDAVASQVPELKKLIELREALVALKGPLGNIPAFRERLQSLLNSEESREKLLAELNLL”, the “soluble on expression in E. coli” value was “not soluble”.
In the case of “MNIISQNTAFGGMQGVFSHQSETLKSEMTFAVYVPPKAIHEPCPVVWYLSGLTCTHANVMEKGEYRRMASELGLVVVCPDTSPRGNDVPDELTNWQMGKGAGFYLDATEEPWSEHYQMYSYVTEELPALIGQHFRADMSRQSIFGHSMGGHGAMTIALKNPERFKSCSAFAPIVAPSSADWSEPALEKYLGADRAAWRRYDACSLVEDGARFPEFLIDQGKADSFLEKGLRPWLFEEAIKGTDIGLTLRMHDRYDHSYYFISTFMDDHLKWHAERLG”, the “soluble on expression in E. coli” value is reported as “not soluble”.
For “MPRHRISGINWLAHYNELIRFWTRKTGSRGDVEDATHDVITKLLESNVSTISSPRSYLHSSIRNRLTDSYRQNKILDLVPIHDLPEDSHPLQPNDPVTHTCTMQLLTALKEALQELPLKCRQVFIWHRLEGYSQTEIAEKLDISVNMVEKYMIRATRHLRDRLQDHIPD”, the “soluble on expression in E. coli” value was “not soluble”.
For “MKKIVFLLLLCVACCMNAQEFHLIPKVGLNLANTTGEVDSKVRPGLNIGLGGDVMLTERFGIETGVYYSMQGSKYKGGGVSYTDKLDYINVPVYAKEFIYKGLYVFGGPQFSFNVNSENKSSSDYGTTVIGMNVIRKFDCGVGLGAGYQFERGLLISLNYNIGLINVNKSWASDSNPKANNSVVQLNVGWRFAL”, the “soluble on expression in E. coli” value was “not soluble”.
With “MGSSHHHHHHSSGLVPRGSHMASNVKKFPEGFLWGVATASYQIEGSPLADGAGMSIWHTFSHTPGNVKNGDTGDVACDHYNRWKEDIEIIEKLGVKAYRFSISWPRILPEGTGRVNQKGLDFYNRIIDTLLEKGITPFVTIYHWDLPFALQLKGGWANREIADWFAEYSRVLFENFGDRVKNWITLNEPWVVAIVGHLYGVHAPGMRDIYVAFRAVHNLLRAHARAVKVFRETVKDGKIGIVFNNGYFEPASEKEEDIRAVRFMHQFNNYPLFLNPIYRGDYPELVLEFAREYLPENYKDDMSEIQEKIDFVGLNYYSGHLVKFDPDAPAKVSFVERDLPKTAMGWEIVPEGIYWILKKVKEEYNPPEVYITENGAAFDDVVSEDGRVHDQNRIDYLKAHIGQAWKAIQEGVPLKGYFVWSLLDNFEWAEGYSKRFGIVYVDYSTQKRIVKDSGYWYSNVVKNNGLED” the “soluble on expression in E. coli” value was “soluble”.
For “GMSSSGTSITCEVGLQLIVPDRAPVPLVARLDYSVDDPYAIRAAFHVGDDEPVEWIFARELLTVGIIRETGEGDVRIWPSQDGKERMVNIALSSPFGQARFHAQVAPLSEFLHRTYELVPAGQESDYIDIDAEIAEHLS”, the “soluble on expression in E. coli” value was “soluble”.
In the case of “GMDVTIERVNDFDGYNWLPLLAKSSQEGFQLVERMLRNRREESFQEDGEAMFVALSTTNQVLACGGYMKQSGQARTGRIRHVYVLPEARSHGIGTALLEKIMSEAFLTYDRLVLYSEQADPFYQGLGFQLVSGEKITHTLDKTAFADSNR”, the “soluble on expression in E. coli” value is reported as “soluble”.
In the case of “MGSDKIHHHHHHMPSTFESQLFFSRPFLSKRQIQRAQKNTISDYRNYNQKKLAVFKFLSDLCVQLKFPRKTLETAVYFYQRYHLFNRFETEVCYTVATSCLTLGCKEVETIKKTNDICTLSLRLRNVVKINTDILENFKKRVFQIELRILESCSFDYRVNNYVHIDEYVIKIGRELSFDYKLCNLAWVIAYDALKLETILVIPQHSIALAILKIAYELLDNKNWSSKRYSLFETDEKSVNEAYFDIVNFYINSFDMCDLQRHLPADLLPIGVERFMELKKNAGPESGLPQIPDHLLNADPYITITRDNNVQERRYVLSLELINGESSINSSTRHA”, the “soluble on expression in E. coli” value is reported as “not soluble”.
For “MHHHHHHSSGRENLYFQGGSLLELQKKYHLKGAIGQGSYGVVRVAIENQTRAIRAIKIMNKNKIRQINPKDVERIKTEVRLMKKLHHPNIARLYEVYEDEQYICLVMELCHGGHLLDKLNVFIDDSTGKCAMDVVKTQICPCPECNEEAINGSIHGFRESLDFVQREKLISNIMRQIFSALHYLHNQGICHRDIKPENFLFSTNKSFEIKLVDFGLSKEFYKLNNGEYYGMTTKAGTPYFVAPEVLNTTNESYGPKCDAWSAGVLLHLLLMGAVPFPGVNDADTISQVLNKKLCFENPNYNVLSPLARDLLSNLLNRNVDERFDAMRALQHPWISQFSDKIYKMS”, the “soluble on expression in E. coli” value was “soluble”.
For “KFGGINETYLPPNNTVRTAQASFDENFPHFRTEPIKLVITGATNQQLVDVYQQANKVEGLTDRFKPSSATKDGTTVLSAGIENREDNAKVVEQLRAIDAPEGVSVYIGGIPAMEVESIEALFDKLP”, the “soluble on expression in E. coli” value was “not soluble”.
